The values that follow come from patent US20020137126A1 (Genentech, published 2002).

The target of test [1] is T1, REK7, endogenous, on rat embryonic (E16) cortical neurons (rat, UniProt P54757 27-1005 at identity 0.97)).
T1 chain: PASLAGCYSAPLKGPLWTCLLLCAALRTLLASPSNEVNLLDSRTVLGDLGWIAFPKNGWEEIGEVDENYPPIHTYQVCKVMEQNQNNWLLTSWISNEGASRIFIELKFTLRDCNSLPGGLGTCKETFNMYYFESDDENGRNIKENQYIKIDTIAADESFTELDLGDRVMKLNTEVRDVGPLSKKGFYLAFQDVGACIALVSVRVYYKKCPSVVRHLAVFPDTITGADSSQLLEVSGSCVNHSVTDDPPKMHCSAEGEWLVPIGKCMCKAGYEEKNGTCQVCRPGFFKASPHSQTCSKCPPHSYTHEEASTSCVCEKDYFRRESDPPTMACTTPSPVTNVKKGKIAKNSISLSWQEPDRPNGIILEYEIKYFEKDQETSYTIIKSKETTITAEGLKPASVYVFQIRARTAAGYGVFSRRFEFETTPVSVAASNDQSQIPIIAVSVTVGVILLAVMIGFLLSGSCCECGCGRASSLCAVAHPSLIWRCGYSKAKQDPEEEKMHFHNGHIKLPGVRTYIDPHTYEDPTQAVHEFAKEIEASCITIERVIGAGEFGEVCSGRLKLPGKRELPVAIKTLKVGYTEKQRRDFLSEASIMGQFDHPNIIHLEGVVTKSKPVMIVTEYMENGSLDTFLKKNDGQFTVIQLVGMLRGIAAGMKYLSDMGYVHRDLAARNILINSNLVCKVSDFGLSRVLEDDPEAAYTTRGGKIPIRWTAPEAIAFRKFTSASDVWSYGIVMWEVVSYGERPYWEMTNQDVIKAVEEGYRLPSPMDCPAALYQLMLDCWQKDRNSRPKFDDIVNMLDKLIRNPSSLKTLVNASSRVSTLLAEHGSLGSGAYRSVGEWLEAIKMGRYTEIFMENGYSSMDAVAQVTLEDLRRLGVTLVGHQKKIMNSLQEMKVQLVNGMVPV
As to the kind of experiment: cell-based or functional assay.

The next test deals with CD4-IgG (human, UniProt P01730 26-205). As to the kind of experiment: immunoaffinity chromatography of BT20 conditioned medium on CD4-IgG-Protein A precolumn; SDS-PAGE, silver stain. On the procedure:
200 ml of BT20 conditioned media, concentrated as described above from 12 liters and frozen, was thawed, centrifuged at 17,000 rpm in a Sorvall SS34 rotor, and filtered through a 0.45 μm filter to clarify the solution. The 200 ml was pumped through a 2.0 ml CD4-IgG—Protein A (CD4-IgG covalently linked to Protein A through IgG moiety) immunoaffinity precolumn and a 1.0 ml REK7-IgG - Protein A (REK7-IgG covalently linked to Protein A through IgG moiety) immunoaffinity column in tandem with a flow rate of 0.5 ml/min. All chromatography was carried out at 4° C. Following one complete passage of the media through both columns, the flow rate was reduced to 0.2 ml/min, and the media was recycled through both columns. Following the loading of the REK7-IgG column, the two column were separated from each other, washed with 10 column volumes of PBS, and then eluted with four separate washes of 100 mM sodium citrate, pH 3.0 (2 ml each for the CD4-IgG column and 1 ml each for the REK7-IgG column). The first two washes were allowed to immediately flow through the column whereas the last two were incubated for 15 minutes before collection. The eluates were brought to pH 7.4 by the addition of 50 mM potassium phosphate, and an aliquot of each was analyzed by sodium dodecycl sulfate (SDS)-polyacrylamide gel electrophoresis (PAGE). […]

B1: soluble AL-1 (purified, secreted form without the GPI membrane anchor) (ligand)
chain: QDPGSKAVADRYAVYWNSSNPRFQRGDYHIDVCINDYLDVFCPHYEDSVPEDKTERYVLYMVNFDGYSACDHTSKGFKRWECNRPHSPNGPLKFSEKFQLFTPFSLGFEFRPGREYFYISSAIPDNGRRSCLKLKVFVRPTNSCMKTIGVHDRVFDVNDKVENSLEPADDTVHESAEPSRGEN
notes: also called purified soluble AL-1; REK7 ligand from BT20 conditioned medium
In the case of B1, the “tyrosine autophosphorylation of REK7 (immunoprecipitation with anti-REK7, anti-phosphotyrosine immunoblot)” value in test [1] is about 2 fold. Also, in the test with CD4-IgG, the binding result is recorded as “no binding”.
